The record followed here is US20220356230A1.

Where only a bound is given, the exact number is not on record here.

Common to all, as to conditions: remark: other sources report otherwise
The target in test [1] is SARS-CoV-2 RBD extracellular domain expressed with a C-terminal human IgG1 (SARS-COV-2 RBD-hFc) (SARS-CoV-2).
Test [2] deals with SARS-CoV-2 RBD extracellular domain expressed with a C-terminal myc-myc-hexahistidine tag (SARS-COV-2 RBD-MMH) (SARS-CoV-2).
Test [3] addresses MERS-CoV (NCoV/Novel coronavirus) Spike Protein S1 Protein (aa 1-725, His Tag) (Sino 40069-V08B1) (MERS-CoV), K9N5Q8. As to the kind of experiment: Luminex bead assay, antigen on microspheres, antibody supernatant.
Test [4] addresses MERS-CoV (NCoV/Novel coronavirus) Spike Protein fragment (RBD, aa 367-606, His Tag) (Sino 40071-V08B1) (MERS-CoV), K9N5Q8. Described as above.
The target of test [5] is Human SARS Coronavirus Spike Protein (Receptor Binding Domain) rabbit Fc (Sino 40150-V31B2) (Human SARS Coronavirus), P59594. The test is described as above.
Test [6] addresses SARS-CoV-2 Spike Protein (RBD)(R319-F541).mFc (SARS-CoV-2). The description is as above.
Test [7] has as its target SARS-CoV-2 Spike Protein (RBD)(R319-F541).hFc (SARS-CoV-2). The description is as above.
The target of test [8] is Human SARS Coronavirus Spike Protein (Receptor Binding Domain, His Tag) (Sino 40150-V08B2) (Human SARS Coronavirus), P59594. The description is as above.
Test [9] has as its target Human SARS Coronavirus Spike S1 Subunit Protein (His Tag) (Sino 40150-V08B1) (Human SARS Coronavirus), P59594. The test is described as above.
Test [10] addresses Bt-SARS-CoV-2 Spike Protein (RBD)(R319-F541).mFc (SARS-CoV-2).
Test [11] addresses Bt-SARS-CoV-2 Spike Protein (RBD)(R319-F541).hFc (SARS-CoV-2).
Test [12] addresses SARS-CoV-2 spike protein receptor binding domain (amino acids Arg319 to Phe541) expressed with the F (SARS-CoV-2).

B1: mAb11006 (antibody, V domains shown)
VH: EVQLVESGGGLVQPGGSLRLSCAASGFIVSRNYMSWVRQAPGKGLEWVSVIYSGGSTFYADSVKGRFTISRHNSKNTLYLQMNSLKAEDTAVYYCARELRGYFDYWGQGTLVTVSS
VL: DIQLTQSPSFLSASVGDRVTITCWASQGISSYLAWYQQKPGKAPKLLIYAASTLQSGVPSRFSGSGSGTEFTLTISSLQPEDFATYYCQLLNSYPYTFGQGTKLEIK
For the molecule B1, the Kd was under 0.0532 nM in [1] and 4.1 nM in test [2]. The t½ in test [1] is over 1160 min; in test [2], 31.5 min. The Binding signal (MFI) in [3] was found to be 18 MFI; in test [4], 15 MFI; in [5], 615 MFI; in test [6], 2870 MFI; in test [7] it was 3980 MFI; in test [8], 667 MFI. The Binding signal (MFI) in [9] stood at 339 MFI; in test [10], 1400 MFI; in test [11], 3810 MFI.

B2: mAb11008 (antibody, V domains shown)
VH: EVQLVESGGGLVQPGGSLRLSCAASGFTVSSNYMTWVRQAPGKGLEWVSVIYSGGSTFYADSVKGRFTISRHNSENTLYLQMNSLRAEDTAVYYCARDLAAAGTDYWGQGALVTVSS
VL: DIQLTQSPSFLSASVGDRVTITCWASQGISSYLAWYQQKPGKAPKLLIYAASTLQSGVPSRFSGSGSGTEFTLTISSLQPDDFATYYCQHLNSYLYTFGQGTKLEIK
B2: the Kd worked out at 0.715 nM in [1] and 59.4 nM in test [2]. The t½ in test [1] was 100 min; in [2], 2.9 min. The Binding signal (MFI) in [3] was determined as 18 MFI; in test [4], 20 MFI; in test [5], 120 MFI; in test [6] it was 4260 MFI; in [7] it was 2570 MFI; in test [8] it was 174 MFI. In addition, the Binding signal (MFI) in [9] came out at 31 MFI; in [10], 3050 MFI; in [11] it was 4110 MFI.

B3: mAb10998 (antibody, V domains shown)
VH: EVQLVESGGGLVHPGGSLRLSCAASGLTVSSNYMSWVRQAPGKGLEWVSVIYSGGSTYYADSVKGRFTISRHNSKNTLFLQMNSLRAEDTAVYYCARDRPITGTTLDVWGQGTTVTVSS
VL: DIQMTQSPSSLFASVGDRVTITCRASQSISSYLNWYQQKPGKAPKLLIYAASSLQSGVPSRFSGSGSGTDFTLTISSLQPEDFAFYYCQQTYSTPPITFGQGTRLEIK
Turning to B3, the figures for the Kd in test [1] and in [2] were 1.58 nM and 117 nM, respectively. Moreover, the values for the t½ in [1] and in test [2] were 22.2 min and 0.5 min, respectively. Besides, the Binding signal (MFI) was determined as 19 MFI in [3]; 24 MFI in test [4]; 29 MFI in test [5]; 2230 MFI in test [6]; 1740 MFI in test [7]; 37 MFI in test [8]. Further, the Binding signal (MFI) in [9] was determined as 16 MFI; in test [10], 2230 MFI; in test [11], 467 MFI.

B4: mAb11004 (antibody, V domains shown)
VH: QVQLVESGGGVVQPGRSLRLSCVASGFTFSIYGMDWVRQAPGKGLEWVAVISYDGSNKYYADSVKGRFTISRDNSKNTLYLQMNSLRPEDTAVYYCAKDREAAADAFDIWGQGTMVTVSS
VL: DIQMTQSPSSVSASVGDRVTITCRASQGISSWLAWYQQKPGKAPKLLIYAASSLHSGVPSRFSGSGSGTDFTLTISSLQPEDFATYYCQQANSFRLTFGGGTKVEIK
For the molecule B4, the Kd was determined as 0.191 nM in test [1] and 16.6 nM in [2]. Moreover, the t½ in [1] was 174 min; in test [2] it was 3.7 min. Besides, the Binding signal (MFI) in test [3] amounted to 17 MFI; in [4] it was 26 MFI; in test [5] it was 5520 MFI; in [6], 4580 MFI; in test [7] it was 4880 MFI; in [8], 740 MFI. The Binding signal (MFI) turned out to be 33 MFI in test [9], 4300 MFI in test [10] and 7620 MFI in [11]. This molecule returned an SARS-CoV-2 RBD-hFc Binding to His presented ACE2 (Abs 450 nm) in [12] of 0.211 Abs 450 nm.

As a reminder, the Kd is the constant that tells how readily two partners part at equilibrium. The low end stands for higher affinity, the high end for lower affinity. As a reminder, the t½ is the time needed for the level to fall by half in the phase considered. Read a low t½ as rapid decline.
